Values of other authors in paper PMC6746776.

Target: p63 TAD TAD (Homo sapiens) (UniProt Q9H3D4)
Sequence (Q9H3D4 1-107): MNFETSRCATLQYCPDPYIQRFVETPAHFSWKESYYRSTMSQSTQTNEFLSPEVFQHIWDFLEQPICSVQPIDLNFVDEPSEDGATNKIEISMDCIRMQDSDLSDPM

p300 Taz2, sequence (Q09472 1723-1812): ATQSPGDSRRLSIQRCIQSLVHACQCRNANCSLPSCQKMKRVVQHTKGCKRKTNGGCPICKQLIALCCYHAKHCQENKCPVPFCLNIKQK

p300 Taz2 (from UniProt Q09472)
Kd: 196 nM
